From patent publication US20240124568A1, “CHEMERIN INHIBITORS AND USES THEREOF FOR TREATING KIDNEY CANCER” (University of Miami, priority 2022, published 2024)
Entries after “also recorded” stand apart in the source; their conditions may differ.

Columns and labels:
HIF2α mRNA in 786-O = assay: qRT-PCR of HIF1α and HIF2α after fatty acid incubation; assay type: cell-based, human; conditions: 500 μM fatty acid for 24 hours
Protocol: RNA Isolation and Real Time Quantitative Polymerase Chain Reaction (qRT-PCR). Total RNA was extracted using TRIzol reagent (Invitrogen, Cat #15596018). The concentration and quality of RNA were determined using a NanoDrop 1000 spectrophotometer (Thermo). 500 ng of RNA was used to synthesize cDNA using the Quantabio qScript cDNA SuperMix (Quantabio, Cat #95048-100) according to the manufacturer's recommendations. The cDNA was diluted by 10-fold before used for qRT-PCR gene expression analysis. qRT-PCR was performed using Power SYBR Green PCR Master Mix (Applied Biosystems, Cat #4367659) and SYBR Green primers (Table 3). The Ct values of the gene of interest was normalized to the Ct value of the housekeeping control, β-actin. The fold change was then calculated using the 2^−ΔΔCt method. Sodium palmitate preparation and supplementation. To prepare BSA-palmitate conjugate, sodium palmitate (Thermo, Cat #P0500) was added to a NaCl solution and heated in a water bath while stirring. The hot palmitate solution was mixed with BSA solution, 5 mL at a time. The final volume was adjusted with 150 mM NaCl for 1 mM palmitate solution and pH was adjusted to 7.4. Sodium palmitate solution was added to cell at final concentration 500 μM and incubated for 24 hours.

[1] = system: HIF2α and chemerin protein in 786-O and 769-P cells; assay: Immunoblots of lysates after fatty acid treatment; assay type: cell-based, human; conditions: 500 μM fatty acid
Protocol: Protein Extraction and Western blotting. The cells were washed with 1× ice-cold PBS (GE, Cat #SH30256.01) once before they were lysed in RIPA lysis buffer (50 mM Tris-HCl, pH 7.5; 150 mM NaCl; 0.5% NP-40; 50 mM NaF) and scraped from the plate on ice. The RIPA lysis buffer contained 1:1000 1× protease inhibitor cocktail (Sigma-Aldrich) and 1:100 1× phosphatase inhibitor (Sigma-Aldrich). The lysates were passed through a 16G needle 15 times before they were centrifuged at 4° C. for 20 minutes at 20,000×g. The protein lysates were quantified using the Pierce BCA Protein Assay Kit (Thermo) according to the manufacturer's protocols and absorbance was measured using GloMax Discover Microplate Reader (Promega). Between 50 and 100 μg of protein samples were mixed with 5×SDS Laemmli loading buffer and boiled at 95° C. for 5 minutes. Proteins were separated using 4-20% SDS-PAGE gels (Bio-Rad) and transferred onto PVDF membrane (Millipore). The membrane was blocked with TBS-T supplemented with 5% non-fat dry milk primary antibody for 45 minutes at room temperature rocking before blotting with primary antibodies at 4° C. overnight. The membrane was washed in TB S-T 3 times with 5 minutes each and blotted in secondary antibodies at room temperature for 2 hours. An Azure 300 chemiluminescent western blot imaging system (Azure biosystems) was used to visualize the membrane. […]

[2] = system: chemerin-knockdown 786-O cells; assay: Cell proliferation assay, rescue in chemerin-knockdown 786-O cells; assay type: cell-based, human
Protocol: Cell Proliferation Assay. Cells were plated at a density of 100,000 cells in triplicate wells of a 6-well plate, supplemented with DMEM containing 10% FBS. Cells were trypsinized and were counted using the Cell Counter Countess II (Life Technologies) at days 3, 6, 9 and 12.

786-O and 769-P cells = assay: EdU incorporation assay (DNA synthesis); assay type: cell-based, human; conditions: chemerin-knockdown 786-O cells, etomoxir 50 μM and 100 μM, EdU flow cytometry
Protocol: EdU incorporation assay. […] After incubation, the cells were fixed with 3.7% formaldehyde/PBS for 15 minutes at room temperature and washed with 1 mL of 3% BSA/PBS twice. 1 mL of 0.5% TritonX-100 in PBS was added for 20 minutes at room temperature to permeabilize the cells. Next, cells were incubated with 0.5 mL of Click-iT reaction cocktail (Invitrogen, Cat #C10337) prepared according to manufacturer's instructions, at room temperature for 30 minutes and away from direct light. DAPI (Millipore, Cat #268298) was added later for DNA staining. […]

786-O cells [3] = assay: BODIPY 493/503 lipid droplet imaging; assay type: cell-based, human; conditions: chemerin-silenced 786-O cells; 50 nM recombinant chemerin protein for 18 hours
Protocol: BODIPY Lipid Droplet Imaging. Cells were plated on round glass coverslips of 12-well plates and incubated with 1 mL of DMEM supplemented with 10% FBS. The medium was removed and cells were washed with room temperature PBS, fixed with 4% formaldehyde for 30 minutes and incubated with 300 μL of 1 uM BODIPY 493/503 (Life Technologies, Cat #D3922) for 15 minutes, protected from direct light. 1 μg/mL of DAPI (Millipore) was added for nucleus staining. The z stack images were acquired using Olympus FV1000 confocal scanning microscope and analyzed using Fiji software (ImageJ).

786-O cells [4] = assay: Lipid reactive oxygen species, BODIPY 581/591 C11; assay type: cell-based, human; conditions: compared to treatment with IgG
Protocol: Lipid Reactive Oxygen Species. The cells were plated at 50,000 cells per well in 24-well plate. 10 uM BODIPY-581/591 C11 (Invitrogen, Cat #D3861) and 1 ug/mL DAPI (Millipore) were added to the media and incubated for 1 hour at 37° C., 5% CO2. Cells were imaged using Olympus FV1000 confocal scanning microscope and analyzed using Fiji software (ImageJ). 9 randomly selected images per condition were selected for analysis.

786-O orthotopic tumors = assay: Orthotopic 786-O tumor growth under left kidney capsule of nude mice (bioluminescence imaging); assay type: in vivo; conditions: for in vivo 786-O tumor growth (bioluminescence imaging): 20 mg/kg twice weekly versus IgG control mAb, n=6 each arm; for animal weight / toxicity: nude mice with orthotopic 786-O, 20 mg/kg twice weekly, weight recorded weekly
Excerpt: Animal Studies. All animal experiments were in compliance with National Institutes of Health guidelines and were approved by the Institutional Animal Care and Use Committee (IACUC) of the University of Miami Miller School of Medicine. Six-week-old female athymic nude mice (Charles River Laboratories) were used for xenograft studies. Mice were housed (3-5 mice per cage) on a 12-hour light/dark cycle in individually ventilated cages, and with ad libitum access to food and water. The experimental holding room had temperature (21.5° C. set point) and humidity control (40% set point), and it was equipped with HEPA-filtered air. For subcutaneous tumor growth model, cells were pelleted and resuspended in a PBS/Matrigel Matrix (Corning, Cat #356234) mix at 1:1 ratio. 2×10^6 cells in a 100 μL solution were injected subcutaneously into each flank. Once palpable tumors were established, digital calipers were used to measure tumor size twice weekly. Tumor volume was calculated using the equation V=½ (length×width^2). For orthotopic tumor growth assays, soft collagen pellets containing 1×10^6 cells were implanted orthotopically under the capsules of the left kidney. Tumors were palpated and monitored twice weekly using IVIS bioluminescence imaging (Perkin Elmer). At the end of the experiments, blood was collected and both kidneys were harvested.

786-O cells [5] = assay: Oil Red O (ORO) lipid droplet staining of cells; assay type: cell-based, human; conditions: compared to treatment with IgG
Protocol: Oil Red O (ORO) Lipid Droplet Staining. For tissue sections staining, the tissues were cryoprotected by incubating in 30% sucrose/PBS solution. After the tissues sank to the bottom of the vial, the tissues were embedded in OCT (Fisher Healthcare). Embedded tissue blocks were sectioned at 10 μm thickness and stored at −80° C. until ready for staining. Before ORO staining, the frozen sections were air dried and fixed in 10% neutral buffered formalin (Sigma-Aldrich, Cat #HT501128). After fixing in 100% propylene glycol (VWR, Cat #0575) twice, sections were stained with freshly made ORO solution (Sigma-Aldrich, Cat #00625) followed by staining for hematoxylin. Then, the slides were washed with distilled water and mounted using glycerin jelly (Sigma-Aldrich). The sections were visualized using a VS120 Virtual Slide Microscope scanner (Olympus). For cell staining, the cells plated in 12-well plates in triplicate were rinsed with PBS twice, and fixed with 10% formaldehyde for 1 hour. […] After the cells were air dried, 250 μL of isopropanol was added to the wells and the eluted solution was measured at 510 nm. Next, the cells were stained with sulforhodamine B as previously described, and measured at 564 nm using GloMax Discover Microplate Reader (Promega), as previously described.

HK-2 cells = assay: Cell viability assay (MTT) after monoclonal antibody treatment, HK-2; assay type: cell-based, human; conditions: similar dose range of the antibody
786-O cells [6] = assay: Cell viability assay (MTT) after monoclonal antibody treatment, 786-O; assay type: cell-based, human; conditions: increasing concentrations of mAb, 2, 4 and 6 days
Protocol: Cell Viability Assay. After treatment with monoclonal antibodies, 786-O cells were incubated with 3-(4,5-dimethylthiazol-2-yl)-2,5-diphenylterazolium bromide (MTT, Sigma-Aldrich) to assess cell survival. Briefly, the cells were plated at density of 1000 cells/plate in 96-well plates and treated with different concentrations of monoclonal antibodies (IgG or anti-RARRES2) for indicated incubation times (2 days, 4 days and 6 days). MTT solution was diluted 5-fold in DMEM media and incubated in 37° C. incubator for 4 hours. The media was carefully removed and the precipitate was dissolved in DMSO. The solution later immediately quantified at 450 nm using the GloMax Discover Microplate Reader (Promega).

[7] = system: patient derived xenograft of kidney cancer; assay: Patient derived xenograft of kidney cancer, antibody versus cabozantinib (FIG. 20); assay type: in vivo; conditions: antibody 20 mg/kg twice per week versus cabo 10 mg/kg 5 times per week

With `CCCCC/C=C\C/C=C\CCCCCCCC(=O)O` [linoleic acid] the “HIF2α mRNA” value (HIF2α mRNA in 786-O) was “opposite pattern”, the HIF2α protein [1] was “opposite pattern; also recorded: decreased” and the chemerin protein [1] was “opposite pattern; also recorded: decreased”.

`CCOC(=O)c1ccc(NC2CCCCC2)c(N)c1` [Ferrostatin-1] was tested, and the “rescue of proliferation defect” value ([2]; chemerin-deficient 786-O cells, 1 μM Ferrostatin-1) was “rescued the proliferation defect”.

For `Clc1cccc(CN=C2Nc3ccccc3NC23CCNCC3)c1` [Liproxstatin-1], the “rescue of proliferation defect” value ([2]; chemerin-deficient 786-O cells, 0.5 μM Liproxstatin-1) was “rescued the proliferation defect”.

`CCOC(=O)[C@@]1(CCCCCCOc2ccc(Cl)cc2)CO1` [etomoxir] was tested, and the “rescue of DNA synthesis (EdU)” value (786-O and 769-P cells) was “rescued the reduction in DNA synthesis”, the “rescue of DNA synthesis (EdU)” value (786-O and 769-P cells; listed as Etomoxir) was “rescues tumorigenesis” and the “rescue of proliferation defect” value ([2]; chemerin-knockdown 786-O cells, 50 μM Etomoxir) was “rescued”. The “rescue of proliferation defect” value ([2]; chemerin-knockdown 786-O cells, 50 μM Etomoxir, listed as Etomoxir) was “rescues proliferation defect”.

B1: recombinant chemerin protein: recombinant chemerin protein used to rescue chemerin-silenced cells (protein, UniProt Q99969 21-157, looked up)
Retinoic acid receptor …: ELTEAQRRGLQVALEEFHKHPPVQWAFQETSVESAVDTPFPAGIFVRLEFKLQQTSCRKRDWKKPECKVRPNGRKRKCLACIKLGSEDKVLGRLVHCPIETQVLREAEEHQETQCLRVQRAGEDPHSFYFPGQFAFS
In the case of B1, the “rescue of lipid deposition (BODIPY 493/503)” value (786-O cells [3]) is reported as “partially rescued; also recorded: rescued the lipid deposition defect”.

B2: chemerin mAb: monoclonal antibody against chemerin; heavy chain SEQ ID NO: 3, light chain SEQ ID NO: 4 (antibody, V domains shown)
VH: MEWNWVVLFLLSLTAGVYSQGQMQQSGAELVKPGASVKLSCKTSGFTFSSSYISWLKQKPRQSLEWIAWIYAGTGGTSYNQKFTGKAQLTVDTSSSTAYMQLSSLTSEDSAIYYCASFWDSWGQGTTLTVSS
VL: MRCLAEFLGLLVLWIPGAIGDIVMTQAAPSVPVTPGESVSISCRSSKSLLHSNGNTYLYWFLQRPGQSPQLLIYRMSNLASGVPDRFSGSGSGTAFTLRISRVEAEDVGVYYCMQHLEYPLTFGAGTKLELK
B2 was tested, and the “lipid ROS (BODIPY 581/591 C11)” value (786-O cells [4]) was “increase in lipid ROS”, the “in vivo 786-O tumor growth (bioluminescence imaging)” value (786-O orthotopic tumors) was “significantly reduced” and the “in vivo 786-O tumor growth (bioluminescence imaging)” value (786-O orthotopic tumors; listed as monoclonal antibody (mAb) targeting chemerin) was “reduces ccRCC tumor burden”. The “tumor weight upon sacrifice” value (786-O orthotopic tumors; 20 mg/kg twice weekly versus IgG mAb, n=6 each group) was “lower tumor weights”, the “animal weight / toxicity” value (786-O orthotopic tumors) was “did not result in significant changes in animal weight” and the “animal weight / toxicity” value (786-O orthotopic tumors; listed as monoclonal antibody targeting chemerin) was “no toxicity”. The “lipid droplets (ORO staining quantification)” value (786-O cells [5]) was “decrease in lipid droplets”, the cell viability (HK-2 cells) was “cell viability was not affected” and the cell viability (786-O cells [6]) was “dose-dependent reduction in cell viability”. The “efficacy compared with cabozantinib” value [7] was “as effective as cabo”.
